Measured values from the supplement of paper PMC12764529.
± gives the half width of the 95% confidence interval.

Experiments:
[1] = folding stability dG unfold (combined trypsin and chymotrypsin); higher = more stable
Summary of the method: (§1)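 Designed mini-proteins with no cysteine and under 80 residues were kept only if AlphaFold2 dimer inter-PAE was above 15. In a PA-tagged cDNA display construct, they were digested with trypsin and chymotrypsin and then sequenced. K50 was inferred by Bayesian fitting of counts, and unfolding free energy was derived per protease or combined against a sequence-predicted unfolded-state K50 and a shared folded-state K50.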

[2] = folding stability dG unfold from chymotrypsin proteolysis; higher = more stable
Summary of the method: as §1

[3] = folding stability dG unfold from trypsin proteolysis; higher = more stable
Summary of the method: as §1

| Sequence | folding stability dG unfold [1] [kJ/mol] | folding stability dG unfold [2] [kJ/mol] | folding stability dG unfold [3] [kJ/mol] |
| --- | --- | --- | --- |
| SAGMMKVRIKIEVTRVEYDEETGELKEETRTIEIPIEAESEEEAEELAKKLAEELPEEEVKIVEIEPLSAGG [r19_209_TrROS_Hall] | 5.1 ± 0.92 | 5.92 ± 0.46 | 4.62 ± 0.402 |
| SAGMNLKIEVSVTPQEFELVEKDEEGNLIKPVKQKATVVTTTTTLPDGTVTTTRSLFLDGELVATSTGSAGG [r19_44_JUSTAS] | 4.07 ± 0.41 | 4.33 ± 0.184 | 2.99 ± 0.0628 |
| SAGMNTITFEYKTKDHYVKIDVQVYPPNEGYIRISIEIYNKDGEPKKEVKITIPAPPGDPAVRDFLDQFSAG [r5_964_TrROS] | 11.4 ± 1.46 | 11.5 ± 0.197 | 11.6 ± 1.34 |
| SAGMPAETETTVTITTETIDEKGNLSTKTYTATVRTLPDGRVLVYLENELLLIDPATGEVVAREPNYKPSAG [r14_821_JUSTAS] | 9.52 ± 0.213 | 9.472 ± 0.0628 | 9.64 ± 0.105 |
| SAGMPEIVKVKVKIKVNIPVFDKNGKLIGLIPKEYEFEIEAPYEEIKNIIESLPENAEVVEILEIENESAGG [r19_114_TrMRF] | 13.8 ± 3.72 | 9.6 ± 1.21 | 17.9 ± 2.85 |
| SAGMPEVKLLPKPDGSLVLVVVFEDKAIIIEFPPDGEGKIYIIDLKNNKITEIPFPSEDPLKAIKEALSSAG [r5_674_TrMRF] | 15.6 ± 1.13 | 16.7 ± 0.879 | 9.82 ± 0.36 |
| SAGMPIRVRLLVERPALDPETGEPVVERREVVLTLHPEEIASGIPVEELAKELEKAFPGAKVTVLEVSSAGG [r19_110_TrMRF] | 15.9 ± 0.197 | 15.8 ± 0.184 | 16.3 ± 0.46 |
| SAGMPKTTVETEIRFVETEEGIEAVAEVRTETETRVVVIPGHLGPEEAIEVLEKLLEEEGLELSRVEIGSAG [r5_305_TrMRF] | 2.27 ± 0.343 | 1.48 ± 0.159 | 2.7 ± 0.134 |
| SAGMPVEIPLVIRLTRYRDLPDGPELAEVRELPLPLRADPSELDNPELLAFIREALEKLPDEIREVEIASAG [r5_849_TrMRF] | 2 ± 0.711 | 3.17 ± 0.46 | -1.07 ± 1.13 |
| SAGMSFTVTTVGSPGPTTPRVVIEPPDRVVVISRLPDGSYEVRYYDPSPPVELERRRLAPEEAIAELLSAGG [r19_188_JUSTAS] | 2.41 ± 0.322 | 2.71 ± 0.41 | 1.61 ± 0.397 |
| SAGMSITIESDTNAPPDLPDIGEEEKLALAEELKEKALADPRYPDEEVVIVRPFKTPGGARWTITVVVSAGG [r19_132_JUSTAS] | 5.53 ± 0.711 | 5.4 ± 1 | 5.46 ± 0.176 |
| SAGMTFTTVTVERPLGSPEGKPVSLEEVEEYAKKVAEELEPNGFPVENITIELLPDGTAVITMTIKKPLSAG [r14_470_JUSTAS] | 8.11 ± 0.234 | 7.77 ± 0.184 | 8.47 ± 0.176 |
| SAGMTFTVDVEEETFSETKVIRVPVEYDDPALVDVAAAEIREALGIPESESVTVEREPRRATITIVIPASAG [r14_804_JUSTAS] | 3.11 ± 0.213 | 3.99 ± 0.121 | 1.12 ± 0.13 |
| SAGMTIEVEYTFPPGNPEEAEKRAEEIAEELKPKPLPNITIEISREPVVDPNSDATTTRYTFTITAEPKSAG [r5_49_JUSTAS] | 4.25 ± 0.795 | 4.97 ± 0.586 | 3.43 ± 0.213 |
| SAGMTITLDGVEITVERVRDEETGEWYYRVTVTVTTEDGEKVTITVTVPEGMTPEQVEALARELAEALASAG [r5_704_TrROS_Hall] | 19 ± 0.795 | 18.3 ± 0.402 | 21.4 ± 1.76 |
| SAGMTITVESLEDALALAEELAEKYPGLKVTVEVRLSPDGKTVEVRVTIEPAPPVKVVDPETGEEVEEESAG [r5_870_TrROS_Hall] | 14.3 ± 1.26 | 9.63 ± 0.502 | 15.6 ± 1.51 |
| SAGMTITVPGNVTVNVVITAYKFDENGNLIGPYTLVKPITVPENSTITIDLPNDEPNVVIIEIKAIPASAGG [r19_295_TrMRF] | 18.5 ± 0.753 | 20.1 ± 0.305 | 13.2 ± 0.628 |
| SAGMTLTVVLPVPEEMTEEEAAEILRAYVDAVVAELLAGDAVAVPKEIVVDKETGTAVAKVELFIPPDLSAG [r5_146_TrMRF] | 10.8 ± 0.285 | 10.7 ± 0.113 | 10.8 ± 0.268 |
| SAGMTQTLEVSGPSVKVTLTVAPDGSVTITTTDPNGNTTTTSLYVPPGVPVTIPLPFGGTTITATVTPASAG [r5_237_JUSTAS] | 9.87 ± 0.377 | 8.84 ± 0.297 | 9.95 ± 0.364 |
| SAGMTSVLTLEEVSPEELRAKIDEALATLPEGTIFVLPSEELAEVVKELHPGVPVVVRDEATGRLTEVGSAG [r5_391_JUSTAS] | 6.27 ± 0.36 | 6.97 ± 0.418 | 4.9 ± 0.172 |
| SAGMTTEKSPSGVGRVYLPTRTLELELLPDGTVVLRFPDGTEVVHPLSPEEAAAVRAELRARGLVVRPLSAG [r5_753_JUSTAS] | 7.12 ± 0.418 | 7.59 ± 0.385 | 6.64 ± 0.259 |

| Sequence | folding stability dG unfold [1] [kJ/mol] | folding stability dG unfold [2] [kJ/mol] | folding stability dG unfold [3] [kJ/mol] |
| --- | --- | --- | --- |
| SAGMTTTVTLKAPDGTTATVTIPPDGNAVMTIETPEGTSTRTVPVPADVSIEEILKEYPNYTIVSREAASAG [r5_259_JUSTAS] | 7.6 ± 0.172 | 8.58 ± 0.0879 | 5.29 ± 0.155 |
| SAGMTVTFTLDFPANGGPITITVYHGDKAEEITVPKNETVTITVDLDPNDGLTIRAHYPDGSYVEFPIGSAG [r5_187_TrMRF] | 18.8 ± 0.377 | 19.5 ± 0.222 | 14.5 ± 0.669 |
| SAGMTVTVTLNYPTPGGPVTVRVLRGDEEEVVTVPPTETLTITVTLDPDSGATIEVFFPDGSSKTYPLGSAG [r5_187_JUSTAS] | 14 ± 0.753 | 15.7 ± 0.586 | 11.8 ± 0.418 |
| SAGMTYTEKVFTSEVTLPEIGAKITITTTVKTPPSGETEPTVEVTFDLPETASEEVVKAVLEELNIPVESAG [r5_486_JUSTAS] | 2.63 ± 1.59 | 4.74 ± 0.276 | -1.72 ± 0.837 |
| SAGMVEITVEVKEDGTVIVTIPATSPEEALEVAEEVARELAKQFGAEHTEFVIEPVPDDTLVLLVPIKKSAG [r5_772_TrMRF] | 3.66 ± 0.962 | 5.29 ± 0.46 | 1.63 ± 0.272 |
| SAGMVEVSVTVSPRADGTITVTITLTKTFPVKDSKGNLYLETTTKTVTVPVTSLEEAPVIVKEVIDKLSAGG [r19_218_JUSTAS] | 14.8 ± 0.628 | 13.5 ± 0.586 | 16 ± 0.795 |
| SAGMVIPYKELKKNLSEEELIELAKEAAEKLGYKPKKIEIKETPEPDKYIVIDVIDENGNKHPIVFPSKSAG [r5_745_TrMRF] | 2.27 ± 0.368 | 1.56 ± 0.711 | 2.89 ± 0.151 |
| SAGMVKIEIEKKEDGEILITITAPSEEELKKLAEELAKELAKKLGIEEIEVKVEKLENGEYKVTIRIKKSAG [r5_772_TrROS_Hall] | 12.5 ± 0.962 | 12.9 ± 1.09 | 12.5 ± 0.586 |
| SAGMVLKITVKDKKTKEEREIVIEIPEDDPELKKLGIKSPEELAKKLAEELKKEGIEVEEVKVEAYPLPSAG [r5_722_TrROS_Hall] | 7.46 ± 1.05 | 8.54 ± 0.351 | 5.17 ± 0.402 |
| SAGMVTITVETTDPQGNWTTKTYEFPLDPGYSLDDVIKRHSPPNAKKYEVTKTEPPPPVTEIKLTVEPSSAG [r5_227_JUSTAS] | 3.44 ± 1.92 | 4.59 ± 0.795 | 2.92 ± 0.343 |
| SAGMVVENPGTETRVVFDPETGELYVEVGDKVYRIPLPPGVEVEFEVDPEAGTIRVYFPNTGEVLELPLSAG [r5_858_TrMRF] | 15.2 ± 0.213 | 14.1 ± 0.176 | 17.5 ± 0.544 |
| SAGMVVVKVTLPGPEEALRAAAAAVPVPVSIERDPEKPDVWTATITFPSPELAPVFVEAFAALGAEVVGSAG [r14_745_JUSTAS] | 7.08 ± 0.289 | 5.39 ± 0.172 | 8.21 ± 0.172 |
| SAGNAKEIAKKIKIRIREFFAERFGFPDVEIDSVTIKDVDPKNGRVRVNITWWWPNGRPWKHEIEIPVDSAG [r5_20_TrROS] | 10.2 ± 0.46 | 10.2 ± 0.301 | 9.94 ± 0.201 |
| SAGNDEEDQKKAEEQQKPPLEIEPIRVMVMVPFPGGDLLISITIPIIKYPDGGIIIPIPIEIIPLEDISAGG [r19_11_TrROS] | 10.5 ± 0.418 | 11.9 ± 0.356 | 8.62 ± 0.389 |
| SAGNFNIKEQKETDGRRVIEIPMPGSGHEITIVFERNPDGPRKININMNGPMADYLREALPGIDRVEIISAG [r5_933_TrROS] | 0.889 ± 0.92 | 1.15 ± 1.09 | 0.784 ± 1.3 |
| SAGNIKIEDIEPNDDYYTLVIKAPENGRTIMIQYNPNNNRIPIMIFPPGGVRTIPIPMNDIEDFLKEILSAG [r5_769_TrROS] | 3.74 ± 0.92 | 3.78 ± 0.205 | 3.31 ± 0.36 |
| SAGNITIEWEEYEDYRVIKITIPYKSPQQAPEEIESIIRKLGFPPNMKIEDIEVDPEEGHVEITIYIKSAGG [r19_186_TrROS] | 18.7 ± 0.356 | 19.4 ± 0.347 | 16.1 ± 0.502 |
| SAGNKIEIEPVNYEPMPNGYYRVTARVTIENPNNKKPWDIDVEAYYPMDPNGQPMNVDEIAKEAIKKIFSAG [r5_604_TrROS] | 4.49 ± 1 | 5.69 ± 0.46 | 2.61 ± 0.41 |
| SAGNPVLLKRPFIDPENGEPVYELTLFDPESNIVTTLFFNSDGKVIAVAVAYVPPETDEVDIELSVFDGSAG [r5_747_TrMRF] | 6.16 ± 0.259 | 5.67 ± 0.414 | 6.34 ± 0.222 |
| SAGNRYEVNLTYMYPPDDPGLIEKIKKILRKLGWEIEKVKEQRMPDNKMRMVTHKIRIPGLPPEALKAFSAG [r14_956_TrROS] | 5.49 ± 1.55 | 5.32 ± 0.962 | 3.84 ± 0.669 |
| SAGNVIVVVNPETGEVVVVSFDELVRIVAVSSKTLVPEVRDVPRDKVLDFIKEAFPGPVEILEIKPAPVSAG [r5_519_TrMRF] | 4.98 ± 0.222 | 5.09 ± 0.209 | 4.28 ± 0.18 |
